Laboratory results as given in article PMC12809495, “Potential 14-3-3 binding sites in sirtuins reveal extended phosphosite-recognition modes” (Acta Crystallographica Section F: Structural Biology …, 2026).
Where a SMILES comes first, the peptide text is derived from it. Where no end group is shown, it is not given here. [ ]: non-standard residue; d: D form. pT = C[C@@H](OP(=O)(O)O)[C@H](N)C(=O)O; pS = N[C@@H](COP(=O)(O)O)C(=O)O

Tests used:
[1] = biological target: T1, 14-3-3 isoform theta (Homo sapiens, UniProt P27348); assay: Label-free microscale thermophoresis (MST) binding, 14-3-3 theta; settings: label-free MST, 0.6 µM 14-3-3 protein, 25 mM MES pH 6.5, 5 mM MgCl2, 5 mM CaCl2, 25°C; Kd from duplicate measurements; read-out: Affinity estimates by MicroScale Thermophoresis, 14-3-3 isoform theta (Kd)
T1 construct: His6; made in house; host or cells: Escherichia coli BL21 Rosetta (DE3)
T1 sequence (P27348 1-245): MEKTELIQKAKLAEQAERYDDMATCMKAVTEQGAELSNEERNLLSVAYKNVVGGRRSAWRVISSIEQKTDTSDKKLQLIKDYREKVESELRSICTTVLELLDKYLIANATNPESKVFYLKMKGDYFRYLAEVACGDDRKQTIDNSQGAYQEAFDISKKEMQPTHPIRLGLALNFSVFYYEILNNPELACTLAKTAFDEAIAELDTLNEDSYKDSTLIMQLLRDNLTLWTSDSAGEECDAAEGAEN
Experimental: (§1) The binding of phosphorylated sirtuin peptides (Fig. 1 ▸) was analyzed using the change in the intrinsic fluorescence signal of the 14-3-3 proteins measured with label-free microscale thermophoresis using a Nanotemper Monolith NT.LabelFree or NT.115. A typical binding experiment using 0.6 µM 14-3-3 protein was performed in a modified MST buffer consisting of 25 mM MES pH 6.5, 5 mM MgCl2, 5 mM CaCl2. The measurements were performed at 25°C using a LED power of 10–40%. All measurements were performed at least in duplicate, and the results shown are representative measurements individually fitted using GraFit 7 (Erathicus Software, Horley, United Kingdom).
(§2) Figure 1 Classification and analysis of sirtuin PSSM results for potential 14-3-3 phosphoserine binding sites. Peptides with a gray background were not analyzed experimentally. Score is the overall PSSM score for the phosphorylation site; rank is the order within the 17 proposed sirtuin binding sites. Conserved residues in the 14-3-3 motifs are marked in green. Residues with restricted (proline) or very flexible (glycine) protein backbone or with a very large side chain (tryptophan) are marked in red. Amino acids with the same or similar hydrophobicity/size are shown in magenta. Kd values from duplicate measurements are colored green for Kd < 100 µM. Fields marked in red indicate no binding or no successful experiment. TEXT PRINTED IN THE PICTURE: Sirt1 S26: Affinity estimates by MicroScale Thermophoresis [μM], 14-3-3 isoform sigma: none | Sirt1 S670: Affinity estimates by MicroScale Thermophoresis [μM], 14-3-3 isoform gamma: aggr.; Affinity estimates by MicroScale Thermophoresis [μM], 14-3-3 isoform epsilon: > 183; Affinity estimates by MicroScale Thermophoresis [μM], 14-3-3 isoform theta: 93; Affinity estimates by MicroScale Thermophoresis [μM], 14-3-3 isoform sigma: 5 | Sirt3 S103: Affinity estimates by MicroScale Thermophoresis [μM], 14-3-3 isoform gamma: aggr.; Affinity estimates by MicroScale Thermophoresis [μM], 14-3-3 isoform epsilon: > 267; Affinity estimates by MicroScale Thermophoresis [μM], 14-3-3 isoform theta: 52; Affinity estimates by MicroScale Thermophoresis [μM], 14-3-3 isoform sigma: 10 | Sirt3 S103wt: Affinity estimates by MicroScale Thermophoresis [μM], 14-3-3 isoform gamma: aggr.; Affinity estimates by MicroScale Thermophoresis [μM], 14-3-3 isoform theta: none; Affinity estimates by MicroScale Thermophoresis [μM], 14-3-3 isoform sigma: none | Sirt3 S105: Affinity estimates by MicroScale Thermophoresis [μM], 14-3-3 isoform gamma: aggr.; Affinity estimates by MicroScale Thermophoresis [μM], 14-3-3 isoform epsilon: > 215; Affinity estimates by MicroScale Thermophoresis [μM], 14-3-3 isoform theta: 60; Affinity estimates by MicroScale Thermophoresis [μM], 14-3-3 isoform sigma: none | Sirt5 S168: Affinity estimates by MicroScale Thermophoresis [μM], 14-3-3 isoform epsilon: aggr.; Affinity estimates by MicroScale Thermophoresis [μM], 14-3-3 isoform theta: aggr.; Affinity estimates by MicroScale Thermophoresis [μM], 14-3-3 isoform sigma: > 329 | Sirt6 T337: Affinity estimates by MicroScale Thermophoresis [μM], 14-3-3 isoform epsilon: > 420; Affinity estimates by MicroScale Thermophoresis [μM], 14-3-3 isoform sigma: 12 | Sirt6 S338: Affinity estimates by MicroScale Thermophoresis [μM], 14-3-3 isoform epsilon: 19; Affinity estimates by MicroScale Thermophoresis [μM], 14-3-3 isoform sigma: 24 | Sirt7 S136: Affinity estimates by MicroScale Thermophoresis [μM], 14-3-3 isoform epsilon: none; Affinity estimates by MicroScale Thermophoresis [μM], 14-3-3 isoform theta: 30; Affinity estimates by MicroScale Thermophoresis [μM], 14-3-3 isoform sigma: 49

[2] = biological target: T2, 14-3-3 isoform epsilon (Homo sapiens, UniProt P62258); assay: Label-free microscale thermophoresis (MST) binding, 14-3-3 epsilon; settings: label-free MST, 0.6 µM 14-3-3 protein, 25 mM MES pH 6.5, 5 mM MgCl2, 5 mM CaCl2, 25°C; Kd from duplicate measurements
T2 construct: His6; made in house; host or cells: Escherichia coli BL21 Rosetta (DE3)
T2 sequence (P62258 1-255): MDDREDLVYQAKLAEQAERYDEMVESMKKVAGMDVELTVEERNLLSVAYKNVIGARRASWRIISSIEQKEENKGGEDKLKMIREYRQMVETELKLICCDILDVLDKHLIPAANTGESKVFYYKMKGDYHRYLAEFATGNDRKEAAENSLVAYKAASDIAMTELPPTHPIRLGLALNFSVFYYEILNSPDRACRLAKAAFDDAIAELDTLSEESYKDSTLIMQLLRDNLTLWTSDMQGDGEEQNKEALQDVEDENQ
Experimental: as §1, §2

[3] = biological target: T3, 14-3-3σ-ΔC (C-terminally truncated human 14-3-3σ) (human, UniProt P31947 1-231); assay: MST
T3 chain: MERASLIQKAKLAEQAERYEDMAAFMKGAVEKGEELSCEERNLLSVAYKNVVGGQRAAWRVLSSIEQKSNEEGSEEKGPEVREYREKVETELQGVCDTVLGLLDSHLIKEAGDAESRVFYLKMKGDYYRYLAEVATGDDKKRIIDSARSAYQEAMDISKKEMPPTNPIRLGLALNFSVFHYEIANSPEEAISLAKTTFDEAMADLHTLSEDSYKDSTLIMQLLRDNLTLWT

[4] = biological target: T4, 14-3-3 epsilon (Homo sapiens); assay: MST
T4 chain: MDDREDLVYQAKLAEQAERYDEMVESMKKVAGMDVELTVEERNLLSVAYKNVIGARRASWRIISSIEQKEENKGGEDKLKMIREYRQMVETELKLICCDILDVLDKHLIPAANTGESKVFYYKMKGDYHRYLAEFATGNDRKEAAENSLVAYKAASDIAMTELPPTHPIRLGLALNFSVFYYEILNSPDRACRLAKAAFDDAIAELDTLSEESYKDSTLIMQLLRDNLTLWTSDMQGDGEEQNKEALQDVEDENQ

[5] = biological target: T5, 14-3-3 theta (Homo sapiens); assay: MST
T5 chain: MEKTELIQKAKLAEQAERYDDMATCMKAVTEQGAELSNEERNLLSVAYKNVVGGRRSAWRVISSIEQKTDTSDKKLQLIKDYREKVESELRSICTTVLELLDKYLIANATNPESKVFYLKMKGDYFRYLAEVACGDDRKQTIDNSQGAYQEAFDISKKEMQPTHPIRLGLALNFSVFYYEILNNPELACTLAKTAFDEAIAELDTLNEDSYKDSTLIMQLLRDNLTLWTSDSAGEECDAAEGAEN

CC(C)C[C@H](NC(=O)[C@H](CC(=O)O)NC(=O)[C@H](C)NC(=O)[C@H](C)NC(=O)[C@H](COP(=O)(O)O)NC(=O)[C@@H](NC(=O)[C@H](CO)NC(=O)[C@H](CCCNC(=N)N)NC(=O)CNC(=O)[C@@H](N)CCCCN)C(C)C)C(=O)N[C@@H](CO)C(=O)O [Sirt7 S136] (H-KGRSV[pS]AADLS-OH)
Kd [1]: 30 µM
Affinity estimates by MicroScale Thermophoresis, 14-3-3 isoform epsilon (Kd) [2]: none

B1: Sirt5 pS168 (peptide)
chain: KTRCT[pS]CGVVA
modifications: cysteine pairing not given here
Kd [3]: > 329 µM

B2: Sirt6^pT336 phospho-endecamer peptide (peptide)
chain: KRERP[pT]SPAPH
Kd [3]: 12 µM
Kd [4]: > 420 µM

B3: Sirt3^pS105 phospho-endecamer peptide (peptide)
chain: RSISF[pS]VGASS
modifications: also: phosphoserine at 105 (place in chain not given here)
Kd [5]: 60 µM
Kd [4]: > 215 µM

B4: Sirt6^pS338 phospho-endecamer peptide (peptide)
chain: RERPT[pS]PAPHR
Kd [3]: 24 µM
Kd [4]: 19 µM

B5: Sirt7 pS136 (peptide)
chain: KGRSV[pS]AADLS
Kd [3]: 49 µM

B6: Sirt7 pS136 (peptide)
chain: KGRSV[pS]AADLS
Kd [5]: 30 µM
